Results taken from the nanobody polyreactivity screen of Harvey et al. (2022).

Assay: yeast display, Sf9 membrane polyspecificity reagent, FACS + sequencing; frameworks hold sequencing errors
Outline: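 Genes from sorted yeast were amplified by colony PCR, read by MiSeq 2 × 250 sequencing and filtered on CDR length. These cells carried a synthetic nanobody library in Saccharomyces cerevisiae BJ5465 and were sorted by FACS into low and high (top ~1%) gates on anti-HA and streptavidin fluorescence. Polyreactivity is labelled according to the gate of origin.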

Sequence | polyreactivity (PSR sort gate)
QVQLVESGGGLVQAGGSLRLSCAASGSIFALYAMGWYRQAPGKERELVAAISRRGGRTYYADSVKGRFTISRDNAKNTVYLQMNSLIPEDTAVYYCNARGYNVPHPNRYDYWGQGTQVTVSS | high polyreactivity
QVQLVESGGGLVQAGGSLRLSCAASGRSFDWDVLGWYSQVPGKERELVAAIDDSGGSTYYADSVKGRFTISRDNAKNTVYLQMNSLKPEDTAVYYCAAASYEYALDEHMDYWGQGTQVTGSS | low polyreactivity
QVHLVESGGGLVQAGGSLRLSCAASGLIFYDNMGWYRQAPGKERELVAAISSSGGSTSYADSVKGRFTISRDNAKNTVYLQMYSLKPEDTAVYYCAADSYPAYLGFVGYDYWGQGTQVTVSS | low polyreactivity
QVQLVESGGGLVQAGGSLRLSCAASGSTFLYYGMGWYRQSPGYERELVATITWRGGRTYYADSVKGRYTISRDNAKNTVYLQMNSLKPEDTAVYYCARVRLTTYGYYSWGQGTQVTVSS | high polyreactivity
QVQLQESGSGLVQAGGSLRLSCAASGNISHYNDMGWYRQAPGKEREPVATINSGSITYYADSVKGRFTISRDNAKNTVYLQMNSLKPEDTAVYYCAVKQHGYFYLDYWGQGTQVTVSS | high polyreactivity
QDQLVESGGGLVQAGGSLRLTCAASGSIFTAYTMGWYRQAPVKERELVAAITERGGSTYYADSVKGRFTISRDNAKNTFYLQMNRMKPEDTAVYYCAASTLKDIYLWFRVDYWGQGTQVTLSS | low polyreactivity
QVQLVESGGGLVQAGGSLRLSCAASGFTFWSYAMGWYRQAPGKERELVAGITIDGNTYYADSVKGRFTISRDNAKNTVYLQMNSLKPEDTAVYYCAAVAYYYGYDYWGQGTQVTVSS | low polyreactivity
QVQLVESGGGLVQAGGSLRLSWAASGFTFSVYAMGWYRQAPGKERELVAAISSGGSTNYADSVKGRFTISRDNAKITVYFQMNSLKPEDTAVYYCADSITVGYSNYYYWGQGSQVTVSS | high polyreactivity
QVQLVESGAGLVQARGSLRLSCAASGYTFLGYAMGWYRQAPGKERELVAAINRSGSSTYYADSVKGRFTISRDNAKNTVYLQMNSLKPEDTAVYYCNARSGNRYGPRYDYWGQGTQVTVSS | high polyreactivity
QVQLVESGGGLVQAGGSLRLSCAASGRTFSRYAMGWYRQAPWKERELVAAITSRGGNTYYADSVKGRFTISRDNAKNTVYLQMNSLIPEDTAVYYCNKVVRRGGGKNPDYDYWGQGTQVTVSS | high polyreactivity
QVQLVESGGGLVQAGGSLRLSCAASGITFQYYAMGWYRQAPGKERELFARISSSGGRTFYADSVKGRFTISRDNAKNTVYLQMNSLKQEDTAVYYCAAGSLSLSNSTVWFEYDYWGQGTQVSVSS | high polyreactivity
QEQLQESGGGLGQAGGSLRLSCAASGSISSDVLMGWHRQAPGKERELVAAIGIGANTYYADSVKGRFTISRDNAKNTVYPQMNSLKPEDTAVYYCATGRYSGADNYWGQGTQVTVSS | high polyreactivity
QVQLVESGGGLVQAGGSLRLRCAASGRTFKPYVMGWNRQAPGKERELVAAISSRGGSTYYADSVKGRFTISRDNAKNTFYLQMNSLKPEDTAVYYCNAAYWFSNKYGYWGQGTQVTVAS | high polyreactivity
QVQLVDSGGGLVQAGGSLRLSCAASGSIFGLYAMGWYRQAPGKERELVAAISASGGSTYYADSVKGRFTISRDNAKNTVYLQMNSLKPEDTAVYYCAADLGYPTYDYWGQDTQVTVSS | low polyreactivity
QVQHVESGGGLVQAGGSLRLSCAASGFIFYIYAMGWYRQAPGKERELVAAITSGGSTYYADSVKGRFTISRDNAKNTVYFQMNSLKPEDTAVFYCNRRSGHVHEYDYWGQGTQVTVSS | low polyreactivity
QVQLVESGGGLVQAGGSLRLSCAATGFTFRWYAMGWYRQAPGKERELVAAITSDDNTYYADSVKGRFTISRDNAKNTVYLQMNSLKPEDTAVYYCAAEYADYWTYIMGYWGQGTQVTVSS | low polyreactivity
QVQLVESGGGLVQAGGSLRLSSAASGSTFLYYVMGWYRQARGKERELVAGITSRGASTYYADSVKGRFTFSRDNAKNTVYLQMNSLKPEDTAVYDCAKPGFTYPGRYNYWGQGTQVTVSS | high polyreactivity
QVQLVESGGGLVQAGGSLRLSCAASGSIFATNTMGWYRQSPGKERELVATISSSDSTNYADSVKGRFTISRDNAKNTVYLEMNSLKPVDTAVYYCNKAYVDSTHGSYRWTYDYWGQGTQVTVSS | low polyreactivity
QVQLVESGGGLVQAGGSLRLSCAASGRTFGLYTKAWYIQAPGKERELVAAISSGGITYYADSVKGRFTISRDNAKNTVYLQMNSLKPEDTAVYYCAADFRTTRRYNYRYNYWGQGTQVTVSS | high polyreactivity
QVQLVESGGGLVQAGGSLRLSCAASGRIFRKYAMGWYRQAPGKERELVAAISVGGGSTRYADSEKGRFTISRDYAKYTVYLQMNSLKPEYTAVYYCAADWAYYVASYLYYTFDYWGQGTQVTVSS | low polyreactivity
QVQLVESGGGLVQAGGSLRLSCAASGRIFNYYDMGWYRQAPGKERELVAAISSGGTTYYADSVKGRFTISRDNAKNTVYLQMNCLKREDTAVYFCASYYTPQRLRSGKFDYWGQGTQVTVST | high polyreactivity
QVQLVESGGGLVQAGGSLRLSCAASGSTFLRYAMGWYRQAPGKERELVAAISVSGGSTYYADSVKGRFTISRDNAKNTVYLQMNCLKPEDTAVYYCAAVYKRLQPYGYWGQGTQVTVSS | high polyreactivity
QVQLVESGGGLVQAGGSLRLSCAASGGTFWLYAMGWYRQAPGKEREFVAAISYSGGSTYYADSVKGRFTISRDHAKNTVYLQMNSLKPEDTAVYYCAASAYYLDYDYWGQGTQVTVSS | high polyreactivity
QVQLVESGGGLVQAGGSLRLSCAASGIIFQYYAMGWYRQAPGKERELVAAISWSGGSTYYADSVKGRFTISRDNAKNTVYLQMNRLKPEDTAVYYCAARSRSYWPYEGDYWGQGTQVTVSS | low polyreactivity
QVQLEESGGGLFQAGGSLRLICAASGRICDVNAMGWYRQAPGKERELVAAISWSGGITYYADSVKGRFTISRDNAKNTVYLQMNSLKPEDTAVYYCAADKYQGYTFYQGYPGGGGYWGQGTQVTVSS | low polyreactivity
QVQLVESGGGLVQAGGSLRLSCAASGSIFFIYDMGWYRQAPGKERELVADITSGGGSTFYADSVKGRFTISRDNAKNTVYLQMNRLKPEVSAVYYCATDDHDQPGGQLYITEVNYWGQGTQVTVSS | low polyreactivity
QVQLVESGGGLVQAGGSLRLSSAASGRLFGLNALGWYRQAPGKERELVASSTYSGGSTYYADSVKGRFTISRDNAKNTVYLQMNSLKQEDTAVYYCAGDSWYYWYSTYDYWGQGTQETVSS | high polyreactivity
QVQLVESGGGLVQAGGSLRLSCAASGLIFAYNAMGWYRQAPGKERELVAAITGGGDGTYYADSVKGRFTISRDNAKNTVYLQMNSLKPEDTAVYYCAADFGNSPYIKVYYYWGQGTQVTVSS | low polyreactivity
QVQLVESGGGLVQAGGSLRLSCAASGSIFRIYAMGWYRQAPGKEREWVAAINSGGITNYADSVKGRFTISRDNAKNTVYLQMNSLKPEDTAVYYCNARQGVYGLYLRAYPYEYWGQATQVTVSS | low polyreactivity
QVQLVESGGCLVQAGGSLRLSCAASGSTFNWNAMGWYRQAPGKERELVAAITSSGARTRYADSVKGRFTISRDNAKNTVYLQMNSLKPEDTAVYYCAAYVYISPSGYYYWGLGTQVTVSS | low polyreactivity
